According to PMC12418098, “A single helicase-binding domain of DnaG couples with hexameric helicase DnaB in Bacillus stearothermophilus”:
Several values for one entry are separate records, joined by “and”; a condition that tells them apart may be missing. Identical values can stand only once. Each block holds one molecule with its values, some of them ahead of it.

Tests used:
[1] = biological target: helicase DnaB hexamer from Bacillus stearothermophilus (Bacillus stearothermophilus) (UniProt Q9X4C9); assay: ITC; DnaG(HBD) (200 μmol/L, needle) titrated into the pre-formed, gel-filtered DnaB6/dT16 complex (10 μmol/L, cell); 25°C; 25 mmol/L Tris pH 8.0, 100 mmol/L NaCl; one-set-of-sites model
[2] = biological target: helicase DnaB hexamer from Bacillus stearothermophilus (Bacillus stearothermophilus) (UniProt Q9X4C9); assay: ITC; DnaB hexamer without ssDNA titrated by DnaG(HBD); 25°C; 25 mmol/L Tris pH 8.0, 100 mmol/L NaCl
[3] = biological target: helicase-binding domain of primase DnaG from Bacillus stearothermophilus (Bacillus stearothermophilus) (UniProt Q9X4D0); assay: ITC; reverse titration: pre-formed DnaB6/dT16 complex (200 μmol/L, needle) titrated into DnaG(HBD) (10 μmol/L, cell); 25°C; 25 mmol/L Tris pH 8.0, 100 mmol/L NaCl; one-set-of-sites model
DnaB helicase;DnaG(HBD) [4] = biological target: T1, DnaB helicase;DnaG(HBD) (Bacillus stearothermophilus;Bacillus …, UniProt Q9X4C9;Q9X4D0 1-454;455-597, |); assay: EMSA; DnaG(HBD) 1-15 pmol added to DnaB/dT16; 5 mM MgCl2, 2 mM ATP; EMSA: 25 mM Tris pH 8.0, 100 mM NaCl, 10% glycerol, 1 mM DTT, 5 mM MgCl2, 2 mM ATP, 4 C, native PAGE (6% in Methods, 8% in legend); ITC: 25 mM Tris pH 8.0, 100; conditions: protein: recombinant;recombinant; tags: GST tag removed with PreScission (pGEX-6p-1);GST tag removed with PreScission (pGEX-6p-1); chain copies: 6;1; label: 5'-6-FAM; single strand
T1 sequence 1: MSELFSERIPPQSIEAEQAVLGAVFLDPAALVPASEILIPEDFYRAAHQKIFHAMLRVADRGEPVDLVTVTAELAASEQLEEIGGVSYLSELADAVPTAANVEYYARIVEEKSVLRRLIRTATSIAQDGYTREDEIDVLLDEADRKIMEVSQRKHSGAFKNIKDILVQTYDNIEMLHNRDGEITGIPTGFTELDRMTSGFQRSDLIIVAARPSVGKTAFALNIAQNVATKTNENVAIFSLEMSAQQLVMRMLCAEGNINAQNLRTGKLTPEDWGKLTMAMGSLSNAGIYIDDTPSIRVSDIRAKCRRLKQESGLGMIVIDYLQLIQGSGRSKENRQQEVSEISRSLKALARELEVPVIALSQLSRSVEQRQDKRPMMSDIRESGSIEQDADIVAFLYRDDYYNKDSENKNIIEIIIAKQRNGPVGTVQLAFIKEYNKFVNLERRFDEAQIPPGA
T1 sequence 2: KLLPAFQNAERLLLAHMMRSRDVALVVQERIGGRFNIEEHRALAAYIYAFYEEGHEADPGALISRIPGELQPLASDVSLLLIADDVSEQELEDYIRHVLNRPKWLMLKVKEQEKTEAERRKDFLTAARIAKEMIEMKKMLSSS

DnaB helicase;DnaG(HBD) [5] = biological target: T1, DnaB helicase;DnaG(HBD); assay: gel filtration with SDS-PAGE and native PAGE; ternary complex, single peak; ITC Kd of Table 1 (about 1 uM) is HBD binding to preformed DnaB6/dT16, a protein-protein contact, so not listed as a value; EMSA: 25 mM Tris pH 8.0, 100 mM NaCl, 10% glycerol, 1 mM DTT, 5 mM MgCl2, 2 mM ATP, 4 C, native PAGE (6% in Methods, 8% in legend); ITC: 25 mM Tris pH 8.0, 100; conditions: protein: recombinant;recombinant; tags: GST tag removed with PreScission (pGEX-6p-1);GST tag removed with PreScission (pGEX-6p-1); chain copies: 6;1; label: none stated; single strand
DnaB helicase = biological target: T2, DnaB helicase (Bacillus stearothermophilus, UniProt Q9X4C9 1-454); assay: gel filtration with SDS-PAGE and SYBR Green II staining; binary complex; EMSA: 25 mM Tris pH 8.0, 100 mM NaCl, 10% glycerol, 1 mM DTT, 5 mM MgCl2, 2 mM ATP, 4 C, native PAGE (6% in Methods, 8% in legend); ITC: 25 mM Tris pH 8.0, 100; conditions: protein: recombinant; tags: GST tag removed with PreScission (pGEX-6p-1); chain copies: 6; label: none stated; single strand
T2 sequence: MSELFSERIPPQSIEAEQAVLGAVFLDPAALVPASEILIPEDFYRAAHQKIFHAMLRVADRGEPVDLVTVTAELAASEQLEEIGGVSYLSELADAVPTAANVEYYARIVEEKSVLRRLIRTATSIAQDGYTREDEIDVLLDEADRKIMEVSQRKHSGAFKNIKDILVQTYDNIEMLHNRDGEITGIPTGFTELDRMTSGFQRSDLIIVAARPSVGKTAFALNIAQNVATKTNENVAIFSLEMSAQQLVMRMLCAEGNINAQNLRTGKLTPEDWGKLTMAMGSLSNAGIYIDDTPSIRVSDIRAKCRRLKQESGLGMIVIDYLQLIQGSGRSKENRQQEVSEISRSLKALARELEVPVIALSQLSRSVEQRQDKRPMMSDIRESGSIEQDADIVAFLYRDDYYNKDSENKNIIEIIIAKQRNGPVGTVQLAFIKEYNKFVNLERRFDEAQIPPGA

B2: dT16 (6-FAM) (ssDNA)
DNA: TTTTTTTTTTTTTTTT
- binding result (DnaB helicase;DnaG(HBD) [4]): binds

B3: dT16 (ssDNA)
DNA: TTTTTTTTTTTTTTTT
- binding result (DnaB helicase;DnaG(HBD) [5]): binds
- binding result (DnaB helicase): binds

Second part, the molecule after the results:

- Kd [1]: 0.96 µM and 1.13 µM and 1.07 µM
- dH [1]: -22.8 kcal/mol and -22.7 kcal/mol and -22.2 kcal/mol
- stoichiometry N [1]: 1.09 and 1.02 and 0.981
- stoichiometry N (DnaG(HBD) per DnaB hexamer) [2]: 3
Molecule: helicase-binding domain of primase DnaG from Bacillus stearothermophilus (from UniProt Q9X4D0 1-597) (domain or fragment)

- Kd [3]: 1.01 µM and 1.11 µM and 0.89 µM
- dH [3]: -11.2 kcal/mol and -9.18 kcal/mol and -9.75 kcal/mol
- stoichiometry N [3]: 0.987 and 1.08 and 1.05
B1: helicase DnaB hexamer from Bacillus stearothermophilus (enzyme)
chain: MSELFSERIPPQSIEAEQAVLGAVFLDPAALVPASEILIPEDFYRAAHQKIFHAMLRVADRGEPVDLVTVTAELAASEQLEEIGGVSYLSELADAVPTAANVEYYARIVEEKSVLRRLIRTATSIAQDGYTREDEIDVLLDEADRKIMEVSQRKHSGAFKNIKDILVQTYDNIEMLHNRDGEITGIPTGFTELDRMTSGFQRSDLIIVAARPSVGKTAFALNIAQNVATKTNENVAIFSLEMSAQQLVMRMLCAEGNINAQNLRTGKLTPEDWGKLTMAMGSLSNAGIYIDDTPSIRVSDIRAKCRRLKQESGLGMIVIDYLQLIQGSGRSKENRQQEVSEISRSLKALARELEVPVIALSQLSRSVEQRQDKRPMMSDIRESGSIEQDADIVAFLYRDDYYNKDSENKNIIEIIIAKQRNGPVGTVQLAFIKEYNKFVNLERRFDEAQIPPGA
